Patent US20210246166A1 (Bayer, published 2021)
Numbered stars: 1 amine (or outer) side, 2 acyl side, 3 side chain; on linkers, the order of the positions; unused ones are H or OH. Bridge positions count the residues as written; N and C are the ends. Square brackets hold non-standard residues; d marks the D form. Ends that are not written are not given here. (N-Benzyl)D = (2S)-2-Amino-4-(benzylamino)-4-oxobutanecarboxylic acid, O=C(C[C@H](N[*:1])C(=O)[*:2])NCc1ccccc1; βDap = *Dap: Dap linked through its additional amino group, O=C([C@H](CN[*:1])N[*:3])[*:2]; X6 = (S)‑(1-Piperidin-3-yl)‑acetic acid, O=C(C[C@@H]1CCCN([*:1])C1)[*:2]; X11 = (S)‑Piperidine‑3‑carboxylic acid, O=C([C@H]1CCCN([*:1])C1)[*:2]; Oic = O=C(O)[C@@H]1C[C@@H]2CCCC[C@@H]2N1; βPro(3S) = O=C([C@H]1CCN([*:1])C1)[*:2]; Pen = CC(C)(S)[C@H](N)C(=O)O; β3hP = O=C(O)C[C@@H]1CCCN1; NMeA = CN[C@@H](C)C(=O)O; Sar = CNCC(=O)O

B1: Example 464: ((N-Me)G)-IC+SRSLP-(Oic)-I-(Pen)+IPGD-OH (peptide)
peptide: [Sar]ICSRSLP[Oic]I[Pen]IPGD-OH
modifications: disulfide 3-11; N-terminus assumed
SMILES: CC[C@H](C)[C@H](NC(=O)CNC)C(=O)N[C@H]1CSSC(C)(C)[C@@H](C(=O)N[C@H](C(=O)N2CCC[C@H]2C(=O)NCC(=O)N[C@@H](CC(=O)O)C(=O)O)[C@@H](C)CC)NC(=O)[C@H]([C@@H](C)CC)NC(=O)[C@@H]2C[C@@H]3CCCC[C@@H]3N2C(=O)[C@@H]2CCCN2C(=O)[C@H](CC(C)C)NC(=O)[C@H](CO)NC(=O)[C@H](CCCNC(=N)N)NC(=O)[C@H](CO)NC1=O
B2: Example 456: ((N-Me)G)-IC+SRSLP-(Oic)-I-(Pen)+IP-((S)-Pyrrolidine-3-carboxylic acid)-OH (peptide)
peptide: [Sar]ICSRSLP[Oic]I[Pen]IP[βPro(3S)]-OH
modifications: disulfide 3-11; N-terminus assumed
SMILES: CC[C@H](C)[C@H](NC(=O)CNC)C(=O)N[C@H]1CSSC(C)(C)[C@@H](C(=O)N[C@H](C(=O)N2CCC[C@H]2C(=O)N2CC[C@H](C(=O)O)C2)[C@@H](C)CC)NC(=O)[C@H]([C@@H](C)CC)NC(=O)[C@@H]2C[C@@H]3CCCC[C@@H]3N2C(=O)[C@@H]2CCCN2C(=O)[C@H](CC(C)C)NC(=O)[C@H](CO)NC(=O)[C@H](CCCNC(=N)N)NC(=O)[C@H](CO)NC1=O
B3: Example 451: ((N-Me)G)-IC+SRSLP-(Oic)-I-(Pen)+IP-((S)-(1-Piperidin-3-yl)-acetic acid)-OH (peptide)
peptide: [Sar]ICSRSLP[Oic]I[Pen]IP[X6]-OH
modifications: disulfide 3-11; N-terminus assumed
SMILES: CC[C@H](C)[C@H](NC(=O)CNC)C(=O)N[C@H]1CSSC(C)(C)[C@@H](C(=O)N[C@H](C(=O)N2CCC[C@H]2C(=O)N2CCC[C@@H](CC(=O)O)C2)[C@@H](C)CC)NC(=O)[C@H]([C@@H](C)CC)NC(=O)[C@@H]2C[C@@H]3CCCC[C@@H]3N2C(=O)[C@@H]2CCCN2C(=O)[C@H](CC(C)C)NC(=O)[C@H](CO)NC(=O)[C@H](CCCNC(=N)N)NC(=O)[C@H](CO)NC1=O
B4: Example 462: ((N-Me)A)-IC+SRSLP-(Oic)-I-(Pen)+IP-((N-Benzyl)D)-NH2 (peptide)
peptide: [NMeA]ICSRSLP[Oic]I[Pen]IP[(N-Benzyl)D]-NH2
modifications: disulfide 3-11
B5: Example 455: ((N-Me)G)-IC+SRSLP-(Oic)-I-(Pen)+IP-(beta-homo-P)-OH (peptide)
peptide: [Sar]ICSRSLP[Oic]I[Pen]IP[β3hP]-OH
modifications: disulfide 3-11; N-terminus assumed
SMILES: CC[C@H](C)[C@H](NC(=O)CNC)C(=O)N[C@H]1CSSC(C)(C)[C@@H](C(=O)N[C@H](C(=O)N2CCC[C@H]2C(=O)N2CCC[C@H]2CC(=O)O)[C@@H](C)CC)NC(=O)[C@H]([C@@H](C)CC)NC(=O)[C@@H]2C[C@@H]3CCCC[C@@H]3N2C(=O)[C@@H]2CCCN2C(=O)[C@H](CC(C)C)NC(=O)[C@H](CO)NC(=O)[C@H](CCCNC(=N)N)NC(=O)[C@H](CO)NC1=O
B6: Example 458: AIC+SRSLP-(Oic)-I-(Pen)+IP-(*Dap)-OH (peptide)
peptide: AICSRSLP[Oic]I[Pen]IP[βDap]-OH
modifications: disulfide 3-11; also: Dap at position 14 joined through its 3-amino group
B7: Example 460: ((S)-Piperidine-3-carboxylic acid)-IC+SRSLP-(Oic)-I-(Pen)+I-OH (peptide)
peptide: [X11]ICSRSLP[Oic]I[Pen]I-OH
modifications: disulfide 3-11; N-terminus assumed
SMILES: CC[C@H](C)[C@H](NC(=O)[C@H]1NC(=O)[C@H]([C@@H](C)CC)NC(=O)[C@@H]2C[C@@H]3CCCC[C@@H]3N2C(=O)[C@@H]2CCCN2C(=O)[C@H](CC(C)C)NC(=O)[C@H](CO)NC(=O)[C@H](CCCNC(=N)N)NC(=O)[C@H](CO)NC(=O)[C@@H](NC(=O)[C@@H](NC(=O)[C@H]2CCCNC2)[C@@H](C)CC)CSSC1(C)C)C(=O)O

Experiments:
[1] = target: T1, recombinant rat MASP1 active protease (amino acids 302-704, C-terminal His Tag) (rat, UniProt Q8CHN8 302-704); test: cell-based or functional assay
T1 sequence: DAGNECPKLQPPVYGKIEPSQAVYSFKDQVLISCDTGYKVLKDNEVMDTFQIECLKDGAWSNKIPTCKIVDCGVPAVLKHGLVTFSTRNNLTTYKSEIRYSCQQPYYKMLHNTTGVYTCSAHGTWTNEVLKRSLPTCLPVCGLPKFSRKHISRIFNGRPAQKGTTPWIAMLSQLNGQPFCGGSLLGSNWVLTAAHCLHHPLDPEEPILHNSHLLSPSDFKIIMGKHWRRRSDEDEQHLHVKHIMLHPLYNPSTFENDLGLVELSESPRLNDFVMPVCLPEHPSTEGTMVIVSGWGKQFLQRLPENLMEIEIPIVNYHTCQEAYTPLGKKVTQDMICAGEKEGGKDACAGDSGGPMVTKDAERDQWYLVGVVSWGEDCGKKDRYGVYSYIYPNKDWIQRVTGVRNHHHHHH

[2] = target: recombinant rat MASP2 active protease (amino acids 296-685, C-terminal His Tag) (rat, UniProt Q9JJS8 296-685); test: cell-based or functional assay
Chain of recombinant rat MASP2 active protease (amino acids 296-685, C-terminal His Tag) (Q9JJS8 other isoform, or with tags, fused parts or gaps limits assumed): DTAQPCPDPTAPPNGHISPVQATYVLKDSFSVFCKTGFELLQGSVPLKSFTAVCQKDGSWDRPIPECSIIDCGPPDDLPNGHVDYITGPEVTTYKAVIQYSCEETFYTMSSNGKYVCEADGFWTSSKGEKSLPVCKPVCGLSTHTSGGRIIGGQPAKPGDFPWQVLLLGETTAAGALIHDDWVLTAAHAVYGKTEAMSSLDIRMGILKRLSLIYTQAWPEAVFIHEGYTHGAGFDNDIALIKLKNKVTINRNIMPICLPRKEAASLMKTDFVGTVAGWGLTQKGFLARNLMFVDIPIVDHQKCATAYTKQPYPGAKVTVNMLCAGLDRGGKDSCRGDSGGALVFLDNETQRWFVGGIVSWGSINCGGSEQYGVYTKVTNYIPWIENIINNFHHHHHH

Binder | rat MASP1 IC50 [1] [µM] | rat MASP2 IC50 [2] [µM]
B1 | 0.094 | 0.12
B2 | 0.039 | 0.03
B3 | 0.046 | 0.046
B4 | 0.16 | 0.15
B5 | 0.041 | 0.032
B6 | 0.25 | 0.1
B7 | 0.21 | 0.069
